Target: T1, Frq1 (S. cerevisiae, UniProt Q06389 1-190)
T1 sequence (looked up): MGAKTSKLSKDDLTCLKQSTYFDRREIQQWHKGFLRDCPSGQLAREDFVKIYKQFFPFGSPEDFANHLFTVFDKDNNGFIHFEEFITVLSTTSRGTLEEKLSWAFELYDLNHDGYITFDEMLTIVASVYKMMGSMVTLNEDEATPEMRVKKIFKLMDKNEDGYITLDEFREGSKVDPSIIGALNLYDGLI
Assay: SEC

B1: Pik1(121-174) peptide (peptide, UniProt P39104 121-174, looked up)
peptide: ASYGFQVARRVLNNLQTNLFNTSSGSDKNVKIHENVAPALVLSSMIMSAIAFPQ
B1: binds.

Source: paper PMC8101487 (Molecular Biology of the Cell, 2021)
